Measured values published in patent publication US20230235013A1 (MABSOLVE, published 2023).

Experiments:
[1] = target: T1, Human C1q (Sigma Cat. No. 20476), HRP-labelled (human, UniProt P02745 23-245; P02746 28-253; P02747 29-245); test: ELISA, antibody coated, HRP-C1q; Expt 2, buffer alone 0.051
T1 construct: Coupled to horse-radish peroxidase with Lightning-Link kit; also called HRP-labelled C1q
Protocol: (§1) Binding analysis was carried out by ELISA. All steps were carried out at room temperature (18 to 22° C.). Samples of purified antibodies comprising variant Fc regions were diluted to 10 μg/mL in PBS. Negative controls consisted of PBS alone. Replicates of 100 μL each were added to two 96-well clear Maxisorp microplates (Sigma Cat. No. M9410-ICS) and incubated with shaking for approximately 60 min. The plates were rinsed with PBS containing 0.05% (v/v) Tween 20 (wash buffer) and 200 μL block buffer was added. The plates were incubated with shaking for approximately 60 min and optionally stored overnight at 4° C., then rinsed with wash buffer. HRP-labelled C1q was diluted to 100 ng/mL in block buffer and 100 μL was added to each well. The plates were incubated with shaking for approximately 90 min then washed four times with wash buffer and twice with water. 100 μL of 3,3′,5,5′-tetramethylbenzidine liquid substrate, supersensitive (TMB) (Sigma Cat. No. T4444) was added and the plates were incubated with shaking for approximately 10 min. 50 μL of 1M sulphuric acid was added to stop the reaction and the absorbance was read at 450 nm with 620 nm subtraction using a microplate spectrophotometer (Anthos Labtec HT). The whole experiment was repeated three times using different selections of variant antibodies. In experiments 1 and 2, six replicates of each sample were tested (three on each plate) and in experiment 3, twelve replicates (six on each plate). Within each experiment, the mean absorbance for each sample was compared with the mean absorbance obtained with buffer alone using a one-tailed t-test, assuming unequal variances. The mean of the resulting probability (P) values was calculated.

[2] = target: T1, Human C1q (Sigma Cat. No. 20476), …; test: ELISA, antibody coated, HRP-C1q; Expt 1, buffer alone 0.053
Protocol: as §1

Mean Absorbance [1] | Mean Absorbance [2] | Binder
0.056 absorbance (450 nm) | 0.053 absorbance (450 nm) | anti-CD52 (alemtuzumab) human IgG1 L234G/L235S/G236R (antibody, EU numbering; also called 4-19; copies: 2 + 2) heavy: QVQLQESGPGLVRPSQTLSLTCTVSGFTFTDFYMNWVRQPPGRGLEWIGFIRDKAKGYTTEYNPSVKGRVTMLVDTSKNQFSLRLSSVTAADTAVYYCAREGHTAAPFDYWGQGSLVTVSSASTKGPSVFPLAPSSKSTSGGTAALGCLVKDYFPEPVTVSWNSGALTSGVHTFPAVLQSSGLYSLSSVVTVPSSSLGTQTYICNVNHKPSNTKVDKKVEPKSCDKTHTCPPCPAPEGSRGPSVFLFPPKPKDTLMISRTPEVTCVVVDVSHEDPEVKFNWYVDGVEVHNAKTKPREEQYNSTYRVVSVLTVLHQDWLNGKEYKCKVSNKALPAPIEKTISKAKGQPREPQVYTLPPSRDELTKNQVSLTCLVKGFYPSDIAVEWESNGQPENNYKTTPPVLDSDGSFFLYSKLTVDKSRWQQGNVFSCSVMHEALHNHYTQKSLSLSPGK light: not shown
0.052 absorbance (450 nm) | 0.056 absorbance (450 nm) | anti-CD52 (alemtuzumab) human IgG1 L234T/L235Q/G236R (antibody, EU numbering; also called 4-60; copies: 2 + 2) heavy: QVQLQESGPGLVRPSQTLSLTCTVSGFTFTDFYMNWVRQPPGRGLEWIGFIRDKAKGYTTEYNPSVKGRVTMLVDTSKNQFSLRLSSVTAADTAVYYCAREGHTAAPFDYWGQGSLVTVSSASTKGPSVFPLAPSSKSTSGGTAALGCLVKDYFPEPVTVSWNSGALTSGVHTFPAVLQSSGLYSLSSVVTVPSSSLGTQTYICNVNHKPSNTKVDKKVEPKSCDKTHTCPPCPAPETQRGPSVFLFPPKPKDTLMISRTPEVTCVVVDVSHEDPEVKFNWYVDGVEVHNAKTKPREEQYNSTYRVVSVLTVLHQDWLNGKEYKCKVSNKALPAPIEKTISKAKGQPREPQVYTLPPSRDELTKNQVSLTCLVKGFYPSDIAVEWESNGQPENNYKTTPPVLDSDGSFFLYSKLTVDKSRWQQGNVFSCSVMHEALHNHYTQKSLSLSPGK light: not shown
0.044 absorbance (450 nm) | 0.051 absorbance (450 nm) | anti-CD52 (alemtuzumab) human IgG1 N297Q (aglycosyl) (antibody, EU numbering; also called 4-67; copies: 2 + 2) heavy: not shown light: not shown
0.053 absorbance (450 nm) | 0.052 absorbance (450 nm) | anti-CD52 (alemtuzumab) human IgG1 L234S/L235T/G236R (antibody, EU numbering; also called 4-52; copies: 2 + 2) heavy: QVQLQESGPGLVRPSQTLSLTCTVSGFTFTDFYMNWVRQPPGRGLEWIGFIRDKAKGYTTEYNPSVKGRVTMLVDTSKNQFSLRLSSVTAADTAVYYCAREGHTAAPFDYWGQGSLVTVSSASTKGPSVFPLAPSSKSTSGGTAALGCLVKDYFPEPVTVSWNSGALTSGVHTFPAVLQSSGLYSLSSVVTVPSSSLGTQTYICNVNHKPSNTKVDKKVEPKSCDKTHTCPPCPAPESTRGPSVFLFPPKPKDTLMISRTPEVTCVVVDVSHEDPEVKFNWYVDGVEVHNAKTKPREEQYNSTYRVVSVLTVLHQDWLNGKEYKCKVSNKALPAPIEKTISKAKGQPREPQVYTLPPSRDELTKNQVSLTCLVKGFYPSDIAVEWESNGQPENNYKTTPPVLDSDGSFFLYSKLTVDKSRWQQGNVFSCSVMHEALHNHYTQKSLSLSPGK light: not shown
0.059 absorbance (450 nm) | 0.057 absorbance (450 nm) | anti-CD52 (alemtuzumab) human IgG1 L234S/L235V/G236R (antibody, EU numbering; also called 4-53; copies: 2 + 2) heavy: QVQLQESGPGLVRPSQTLSLTCTVSGFTFTDFYMNWVRQPPGRGLEWIGFIRDKAKGYTTEYNPSVKGRVTMLVDTSKNQFSLRLSSVTAADTAVYYCAREGHTAAPFDYWGQGSLVTVSSASTKGPSVFPLAPSSKSTSGGTAALGCLVKDYFPEPVTVSWNSGALTSGVHTFPAVLQSSGLYSLSSVVTVPSSSLGTQTYICNVNHKPSNTKVDKKVEPKSCDKTHTCPPCPAPESVRGPSVFLFPPKPKDTLMISRTPEVTCVVVDVSHEDPEVKFNWYVDGVEVHNAKTKPREEQYNSTYRVVSVLTVLHQDWLNGKEYKCKVSNKALPAPIEKTISKAKGQPREPQVYTLPPSRDELTKNQVSLTCLVKGFYPSDIAVEWESNGQPENNYKTTPPVLDSDGSFFLYSKLTVDKSRWQQGNVFSCSVMHEALHNHYTQKSLSLSPGK light: not shown
0.051 absorbance (450 nm) | 0.052 absorbance (450 nm) | anti-CD3 (muromonab) human IgG1 N297Q (aglycosyl) (antibody, EU numbering; also called 3-67; copies: 2 + 2) heavy: not shown light: QIVLTQSPAIMSASPGEKVTMTCSASSSVSYMNWYQQKSGTSPKRWIYDTSKLASGVPAHFRGSGSGTSYSLTISGMEAEDAATYYCQQWSSNPFTFGSGTKLEIKRTVAAPSVFIFPPSDEQLKSGTASVVCLLNNFYPREAKVQWKVDNALQSGNSQESVTEQDSKDSTYSLSSTLTLSKADYEKHKVYACEVTHQGLSSPVTKSFNRGEC
0.045 absorbance (450 nm) | 0.047 absorbance (450 nm) | anti-CD3 (muromonab) human IgG1 L234T/L235Q/G236R (antibody, EU numbering; also called 3-60; copies: 2 + 2) heavy: not shown light: QIVLTQSPAIMSASPGEKVTMTCSASSSVSYMNWYQQKSGTSPKRWIYDTSKLASGVPAHFRGSGSGTSYSLTISGMEAEDAATYYCQQWSSNPFTFGSGTKLEIKRTVAAPSVFIFPPSDEQLKSGTASVVCLLNNFYPREAKVQWKVDNALQSGNSQESVTEQDSKDSTYSLSSTLTLSKADYEKHKVYACEVTHQGLSSPVTKSFNRGEC
0.042 absorbance (450 nm) | 0.047 absorbance (450 nm) | anti-CD3 (muromonab) human IgG1 L234S/L235V/G236R (antibody, EU numbering; also called 3-53; copies: 2 + 2) heavy: not shown light: QIVLTQSPAIMSASPGEKVTMTCSASSSVSYMNWYQQKSGTSPKRWIYDTSKLASGVPAHFRGSGSGTSYSLTISGMEAEDAATYYCQQWSSNPFTFGSGTKLEIKRTVAAPSVFIFPPSDEQLKSGTASVVCLLNNFYPREAKVQWKVDNALQSGNSQESVTEQDSKDSTYSLSSTLTLSKADYEKHKVYACEVTHQGLSSPVTKSFNRGEC
0.048 absorbance (450 nm) | 0.047 absorbance (450 nm) | anti-CD3 (muromonab) human IgG1 L234T/L235T/G236R (antibody, EU numbering; also called 3-63; copies: 2 + 2) heavy: not shown light: QIVLTQSPAIMSASPGEKVTMTCSASSSVSYMNWYQQKSGTSPKRWIYDTSKLASGVPAHFRGSGSGTSYSLTISGMEAEDAATYYCQQWSSNPFTFGSGTKLEIKRTVAAPSVFIFPPSDEQLKSGTASVVCLLNNFYPREAKVQWKVDNALQSGNSQESVTEQDSKDSTYSLSSTLTLSKADYEKHKVYACEVTHQGLSSPVTKSFNRGEC
0.953 absorbance (450 nm) | 1.45 absorbance (450 nm) | anti-CD20 (rituximab variable regions) mouse IgG2a L234Q/L235S/G236R (antibody, copies: 2 + 2) heavy: QVQLQQPGAELVKPGASVKMSCKASGYTFTSYNMHWVKQTPGRGLEWIGAIYPGNGDTSYNQKFKGKATLTADKSSSTAYMQLSSLTSEDSAVYYCARSTYYGGDWYFNVWGAGTTVTVSSAKTTAPSVYPLAPVCGDTTGSSVTLGCLVKGYFPEPVTLTWNSGSLSSGVHTFPAVLQSDLYTLSSSVTVTSSTWPSQSITCNVAHPASSTKVDKKIEPRGPTIKPCPPCKCPAPNQSRGPSVFIFPPKIKDVLMISLSPIVTCVVVDVSEDDPDVQISWFVNNVEVHTAQTQTHREDYNSTLRVVSALPIQHQDWMSGKEFKCKVNNKDLPAPIERTISKPKGSVRAPQVYVLPPPEEEMTKKQVTLTCMVTDFMPEDIYVEWTNNGKTELNYKNTEPVLDSDGSYFMYSKLRVEKKNWVERNSYSCSVVHEGLHNHHTTKSFSRTPGK light: QIVLSQSPAILSASPGEKVTMTCRASSSVSYIHWFQQKPGSSPKPWIYATSNLASGVPVRFSGSGSGTSYSLTISRVEAEDAATYYCQQWTSNPPTFGGGTKLEIKRADAAPTVSIFPPSSEQLTSGGASVVCFLNNFYPKDINVKWKIDGSERQNGVLNSWTDQDSKDSTYSMSSTLTLTKDEYERHNSYTCEATHKTSTSPIVKSFNRNEC

The next lines start with the binder.

Binder | Mean Absorbance [1] | Mean Absorbance [2]
anti-CD52 (alemtuzumab) human IgG1 wild-type reference (antibody, also called 4-1; copies: 2 + 2) heavy: not shown light: not shown | 0.649 absorbance (450 nm) | 1.42 absorbance (450 nm)
anti-CD3 (muromonab) human IgG1 wild-type reference (antibody, also called 3-1; copies: 2 + 2) heavy: not shown light: QIVLTQSPAIMSASPGEKVTMTCSASSSVSYMNWYQQKSGTSPKRWIYDTSKLASGVPAHFRGSGSGTSYSLTISGMEAEDAATYYCQQWSSNPFTFGSGTKLEIKRTVAAPSVFIFPPSDEQLKSGTASVVCLLNNFYPREAKVQWKVDNALQSGNSQESVTEQDSKDSTYSLSSTLTLSKADYEKHKVYACEVTHQGLSSPVTKSFNRGEC | 0.432 absorbance (450 nm) | 0.769 absorbance (450 nm)
anti-CD3 (muromonab) human IgG1 L234S/L235T/G236R (antibody, EU numbering; also called 3-52; copies: 2 + 2) heavy: not shown light: QIVLTQSPAIMSASPGEKVTMTCSASSSVSYMNWYQQKSGTSPKRWIYDTSKLASGVPAHFRGSGSGTSYSLTISGMEAEDAATYYCQQWSSNPFTFGSGTKLEIKRTVAAPSVFIFPPSDEQLKSGTASVVCLLNNFYPREAKVQWKVDNALQSGNSQESVTEQDSKDSTYSLSSTLTLSKADYEKHKVYACEVTHQGLSSPVTKSFNRGEC | 0.046 absorbance (450 nm) | 0.048 absorbance (450 nm)
anti-CD3 (muromonab) human IgG1 L234A/L235A (LALA) (antibody, EU numbering; also called 3-65; copies: 2 + 2) heavy: not shown light: QIVLTQSPAIMSASPGEKVTMTCSASSSVSYMNWYQQKSGTSPKRWIYDTSKLASGVPAHFRGSGSGTSYSLTISGMEAEDAATYYCQQWSSNPFTFGSGTKLEIKRTVAAPSVFIFPPSDEQLKSGTASVVCLLNNFYPREAKVQWKVDNALQSGNSQESVTEQDSKDSTYSLSSTLTLSKADYEKHKVYACEVTHQGLSSPVTKSFNRGEC | 0.051 absorbance (450 nm) | 0.053 absorbance (450 nm)
anti-CD3 (muromonab) human IgG1 L234G/L235S/G236R (antibody, EU numbering; also called 3-19; copies: 2 + 2) heavy: not shown light: QIVLTQSPAIMSASPGEKVTMTCSASSSVSYMNWYQQKSGTSPKRWIYDTSKLASGVPAHFRGSGSGTSYSLTISGMEAEDAATYYCQQWSSNPFTFGSGTKLEIKRTVAAPSVFIFPPSDEQLKSGTASVVCLLNNFYPREAKVQWKVDNALQSGNSQESVTEQDSKDSTYSLSSTLTLSKADYEKHKVYACEVTHQGLSSPVTKSFNRGEC | 0.049 absorbance (450 nm) | 0.052 absorbance (450 nm)
anti-CD3 (muromonab) human IgG1 L234A/L235A/P329G (LALAPG reference) (antibody, EU numbering; also called 3-66; copies: 2 + 2) heavy: not shown light: QIVLTQSPAIMSASPGEKVTMTCSASSSVSYMNWYQQKSGTSPKRWIYDTSKLASGVPAHFRGSGSGTSYSLTISGMEAEDAATYYCQQWSSNPFTFGSGTKLEIKRTVAAPSVFIFPPSDEQLKSGTASVVCLLNNFYPREAKVQWKVDNALQSGNSQESVTEQDSKDSTYSLSSTLTLSKADYEKHKVYACEVTHQGLSSPVTKSFNRGEC | 0.044 absorbance (450 nm) | 0.052 absorbance (450 nm)
